Experimental data from article PMC2438614, “Antibodies Targeting the PfRH1 Binding Domain Inhibit Invasion of Plasmodium falciparum Merozoites” (PLoS Pathogens, 2008).

Molecular target: the molecule itself
Assay: SEC; gel filtration of purified recombinant rRII-3; column and buffer not told in the text shown (Figure S3)

B1: recombinant RII-3 of P. falciparum reticulocyte binding protein homologue 1 (PfRH1), amino acids 500 to 833 (domain or fragment)
chain: LQIVQQKLLEIKQKKNDITHKVQLINHIYKNIHDEILNKKNNEITKIIINNIKDHKKDLQDLLLFIQQIKQYNILTDHKITQCNNYYKEIIKMKEDINHIHIYIQPILNNLHTLKQVQNNKIKYEEHIKQILQKIYDKKESLKKIILLKDEAQLDITLLDDLIQKQTKKQTQTQTQTQKQTLIQNNETIQLISGQEDKHESNPFNHIQTYIQQKDTQNKNIQNLLKSLYNGNINTFIDTISKYILKQKDIELTQHVYTDEKINDYLEEIKNEQNKIDKTIDDIKIQETLKQITHIVNNIKTIKKDLLKEFIQHLIKYMNERYQNMQQGYNNLTN
notes: region II amino acids 500 to 833 (334 residues); Cloned EcoRI/XhoI into pET24a(+); no cleavage of the tag is described; Primers are in Protocol S1; also called rRII-3; source: E. coli BL21-CodonPlus-RIL, purified (Ni-NTA, MonoS ion exchange); not shown: His6, C-terminal, kept
stoichiometry N: 3
